# Results published in US20250243261A1 (CZ BIOHUB SF, published 2025).
# B1: C143 WT IgG (antibody, V domains shown)
# VH: EVQLVESGGGLVQPGGSLRLSCAASGFSVSTKYMTWVRQAPGKGLEWVSVLYSGGSDYYADSVKGRFTISRDNSKNALYLQMNSLRVEDTGVYYCARDSSEVRDHPGHPGRSVGAFDIWGQGTMVTVSS
# VL: QSALTQPASVSGSPGQSITISCTGTSNDVGSYTLVSWYQQYPGKAPKLLIFEGTKRSSGISNRFSGSKSGNTASLTISGLQGEDEADYYCCSYAGASTFVFGGGTKLTVL
# What was measured:
# [1] = biological target: T1, SARS-CoV-2 Omicron-variant receptor binding domain (RBD) (SARS-CoV-2 Omicron variant); assay: BLI, IgG
# T1 construct: domain: RBD
# [2] = biological target: SARS-CoV-2 Beta-variant Spike with two stabilizing proline substitutions (S-2P) (SARS-CoV-2 Beta variant); assay: BLI, IgG
binder,measurement,setting,value
B1,Kd,[1],600 µM
same,Kd,[2],0.45 µM
